The results in this text go back to patent US20040001822A1, “Y1-isolated molecules comprising epitopes containing sulfated moieties, antibodies to such epitopes, and uses thereof” (priority 2000, published 2004).

The subject of one data set is washed platelets. Put plainly: Ristocetin-induced agglutination of washed platelets after preincubation with scFv. Format: cell-based, human. On the procedure: Aggregation is determined in PRP due to the presence of thrombotic agents, while agglutination is determined in washed platelets. The effect of Y1 (scFv) on agglutination of washed platelets was tested at various concentrations of Y1. Platelets were pre-incubated with Y1 scFv, Y17 scFv, Y16-scFv, or a control TM-1 scFv for 4 min at 37° C. before being exposed to ristocetin, an inducer of platelet agglutination and aggregation.
Platelet concentrate in acid-citrate-dextrose (ACD) was obtained from a blood bank, platelets were isolated, washed once in buffer containing ACD and saline in a ratio of 1:7. The platelets were centrifuged at 800 g for 10 min after each wash and were resuspended in Tyrodes solution (2 mM MgCl2, 137 mM NaCl, 2.68 mM KCl, 3 mM NaH2PO4, 0.1% glucose, 5 mM Hepes and 0.35% albumin, pH 7.35) and count the number of cells.
(§1) For platelet aggregation studies, platelet rich plasma (PRP) and washed platelets were stirred at 500 rpm at 37° C. in whole blood Lumiaggregometer (Chronolog, Havertown,Pa.). The difference in light transmission through the platelet suspension and suspending medium was taken as 100% aggregation. The effect of Y1 on platelet aggregation was evaluated by addition of different concentration of Y1 before the addition of agonist, and the effect was recorded for four minutes.
The effect of Y17-scFv on vWF-dependent agglutination of platelets was tested at different concentrations of Y17.

The test system of data set [1] is platelet-rich-plasma (PRP). In words: Ristocetin-induced aggregation of platelet-rich plasma after preincubation with scFv. It is filed as cell-based, human. Particulars: scFv 38 μg/ml. As for the experimental part:
The effect of Y1 (scfv) on aggregation of platelet-rich-plasma (PRP) was tested at various concentrations of Y1. PRP was pre-incubated with Y1 scfv, Y17 scfv, or a control sTM-1cFv for 4 min at 37° C. before being exposed to ristocetin, an inducer of platelet agglutination and aggregation. A reversible inhibitory effect was observed when scFv was added to PRP prior to the addition of ristocetin, and it was dose dependent.
Blood was collected into a tube containing 3.8% sodium citrate. Platelet-rich plasma was prepared by centrifugation at 250×g for 10 minutes.
as §1

A short description of data set [2]: Pharmacokinetics of 125I-CONY1 after intravenous injection. Format: in vivo, Male Balb-C mice. As for the experimental part:
Two to four mice were used per time point. […] Organ/tissue total and specific radioactivity values were calculated.

The next data set has as its system MOLT-4 cells. Put plainly: T-ALL (MOLT4) model in SCID mice. Format: in vivo. As for the experimental part: The in vivo mouse model for T-ALL uses SCID mice (Jackson Laboratories) injected with MOLT4 cells derived from a T cell leukemia patient.
In one experiment, SCID mice were pretreated with 100 mg/kg Cytoxan (CTX, Cycloposphamid for injection, Mead Johnson). Eleven days after CTX injection, MOLT-4 cell were injected intravenously into the tail vein. Control mice were injected with PBS alone. One week post-MOLT-4 injection mice were injected with CONY1-Doxorubicin, which is a conjugate between scFv CON Y1 polypeptide, having KAK amino acid residues at its carboxy end and doxorubicin via a short organic linker; CONY1, which is a scFv antibody fragment derived from Y1 scFv in which the DNA sequences encoding the myc tag of Y1 were deleted and replaced with a DNA sequence encoding the amino acids lysine, alanine, lysine (KAK); or free Doxorubicin. The mice were injected three times per week for three weeks. […] (Table M).
Mice started to die 32 days post cell inoculation, and the surviving mice were sacrificed at this time. Bone marrow cells were analyzed by flow cytometry using anti-human CD44-FITC and Y1-Biotin/SAV-PE. Blood samples from several animals were monitored for platelet and white blood cell count. Livers were weighted and examined for tumor appearance. Other organs were also examined for tumor appearance.
In a second experiment, SCID mice were i.v. injected with 2×10^7 MOLT-4 cells/mouse, 5 days post treatment with cyclophosphamide. Anti-cancer agents or PBS (negative control animals) were injected i.v. three times/week from day 5 post MOLT-4 cells injection and onward. On day 35, blood was drawn from the animals, the animals were sacrificed, and their livers were excised and weighed. In the untreated, PBS-treated MOLT-4 cell-bearing animals, the liver presented with a very massive tumor growth, and its size was increased 2-3-fold relative to PBS control uninfected animals. In this experiment, there were five treatment groups:
In parallel, portions of liver tissue were taken for histology and cell harvesting for FACS analysis. The survival rate of another group of treated animals was recorded relative to that of control untreated mice.
In a third experiment, using the identical SCID/MOLT-4 protocol, there were 6 groups: […]

The target in data set [3] is T1, GPIb (glycocalicin) derived from platelets (Homo sapiens, UniProt P07359).
T1 construct: glycocalicin (soluble, extracellular fragment of GPIbα); from tissue; host or cells: human platelets
Put plainly: ELISA to glycocalicin, monomer versus cysteine dimer. Format: binding. On the procedure: An ELISA assay was performed to ascertain the differences in binding between the monomer (the Y1 scFv-also known as Y1-kak) and the dimer Y1-cys-kak (the cysteine dimer) for antigen GPIb (glycocalicin) derived from platelets. A polyclonal anti single chain antibody and/or a novel polyclonal anti-VL (derived from rabbits) and anti-rabbit HRP, were used to detect the binding to GPIb. […] For instance, to reach 0.8 OD units 12.8 μg/ml of monomer was used compared to only 0.1 μg/ml of dimer.
100 ml of purified glycocalicin was incubated in a 96 flat well maxisorp plates, overnight at 4 degrees celsius. The plate was washed with PBST (PBS+0.05% tween) 3 times, then […] of PBST-milk (PBST+2% Non fat milk), for 1 hr at room temperature. The plate was washed with PBST, and the monomer or dimer (100 ml) was added in PBST-milk at different concentrations for 1 hr at room temp. Then the plate was washed and anti-VL polyclonal (derived from immunized rabbits with VL derived from Y1) (1:100 diluted in PBST-milk) was added for an hour. The plate was washed and anti-rabbit HRP was added for an additional hour. The plate was washed 5 times and 100 μl TMB substrate was added for approximately 15 minutes then 100 μl of 0.5 H2SO4 was added to stop the reaction. The optical density of the plate was measured at 450 nm in an ELISA reader.

In another data set the test system is KG-1 cells. In words: AML KG-1 model in NOD/SCID mice. Format: in vivo. As for the experimental part:
The in vivo mouse model for human AML uses SCID/NOD mice (Jackson Laboratories) inoculated with KG-1 cells derived from a human AML cell line.
In a first experiment, NOD/SCID mice were pretreated with 100 mg/kg CYTOXAN®. Four days post CYTOXAN® injection, KG-1 cells were injected intravenously into the tail vein of six groups of mice. (Table N, Groups 2 and 5-9). One group of mice (Table N, Group 1) was injected with PBS alone (control).
Beginning 19 days post KG-1 injection mice were treated with: CONY1, Doxorubicin, CONY1-Doxorubicin conjugate, or Mylotarg®. (Mylotarg® is a monoclonal antibody (anti CD33) conjugated chemically to calcheamicin recently approved by the FDA for treatment of AML patients age 60 and over in a first relapse.) Mice were treated once or three times per week for three weeks. […]
Mice were sacrificed from 60 to 65 days post cell injection. Bone marrow samples were analyzed by flow cytometry using mouse anti human CD34-FITC (IQP 144F) (or anti CD44-FITC (MCA89F, Serotec)) and Y1-Biotin/SAV-PE. […]
An additional experiment was performed in which SCID-NOD mice were i.v. injected with 3×10^4 MOLT-4 cells/mouse 5 days post treatment with cyclophosphamide. […] Bone marrow was extracted and analyzed by FACS analysis using a commercially available antiCD44 antibody for the detection of MOLT-4 cells in the mice bone marrow cell population.

[4] abbreviates: scFv 25 μg/ml, ristocetin = 100% agglutination.

B1: Y17 scFv: second scFv clone binding platelets and myelogenous leukemia cell lines, SEQ ID NO: 203 (protein, listed as Homo sapiens)
scFv: MKYLLPTAAAGLLLLAAQPAMAEVQLVESGGGVVRPGGSLRLSCAASGFTFDDYGMSWVRQAPGKGLEWVSGINWNGGSTGYADSVKGRFTISRDNAKNSLYLQMNSLRAEDTAVYYCARLTHPYFWGQGTLVTVSRGGGGSGGGGSGGGGSSELTQDPAVSVALGQTVRITCQGDSLRSYYASWYQQKPGQAPVLVIYGKNNRPSGIPDRFSGSSSGNTASLTITGAQAEDEADYYCNSRDSSGNHVVFGGGTKLTVLGAAAEQKLISEEDLNGAA
One may read the % inhibition as the drop in the measured response relative to a control, in per cent. Read a low % inhibition as little suppression. For B1, the “inhibition of vWF-dependent platelet agglutination induced by ristocetin” value in the data set on washed platelets (final concentration of 10, 25 or 50 μg/ml) was “did not inhibit”. In the data set on washed platelets (setting [4]), the “% agglutination” value was found to be 85% and the “% inhibition” value was determined as 15%. In data set [1], the “% aggregation” value was 100%. For the same molecule, the “% inhibition” value in data set [1] (listed as Y17) is reported as “did not inhibit”.

B2: CONY1: scFv derived from Y1 scFv with the myc tag replaced by lysine, alanine, lysine (KAK), SEQ ID NO: 204 (protein, listed as Homo sapiens)
scFv: MKYLLPTAAAGLLLLAAQPAMAEVQLVESGGGVVRPGGSLRLSCAASGFTFDDYGMSWVRQAPGKGLEWVSGINWNGGSTGYADSVKGRFTISRDNAKNSLYLQMNSLRAEDTAVYYCARMRAPVIWGQGTLVTVSRGGGGSGGGGSGGGGSSELTQDPAVSVALGQTVRITCQGDSLRSYYASWYQQKPGQAPVLVIYGKNNRPSGIPDRFSGSSSGNTASLTITGAQAEDEADYYCNSRDSSGNHVVFGGGTKLTVLGAAAKAK
Take B2: the “half-life of blood clearance, first compartment” value in data set [2] (15 μg per mouse i.v., plasma TCA precipitable radioactivity, two-compartment model) was determined as 0.583 h. Moreover, the “half-life of blood clearance, second compartment” value in data set [2] (15 μg per mouse i.v., two-compartment model) is 3.17 h. The “distribution between plasma and erythrocytes” value in data set [2] (blood versus plasma radioactivity) was “practically all of the CONY-1 resided in the plasma and did not adhere to erythrocytes”. In addition, the “specific uptake in body tissues” value in data set [2] (liver, lung, kidney, spleen, bone marrow, 5 minutes to 24 hours) is listed as “no major specific uptake”. In the data set on MOLT-4 cells (first experiment, three times per week for three weeks, sacrifice 32 days post cell inoculation), the “liver weight versus free Doxorubicin or untreated” value is “weighted significantly less”. Moreover, in the data set on MOLT-4 cells (mice which received continued treatment), the survival entry was “prolonged”. For the same molecule, the “liver weights / tumor growth in the liver” value with MOLT-4 cells (second experiment, day 35, i.v. three times/week, CONY1 and conjugate 75 μg/mouse, Doxorubicin 0.1 mg/kg) was “markedly inhibited tumor growth in the liver”. The “tumor growth (based on liver weights)” value with MOLT-4 cells (third experiment, CONY1 scFv 75 μg/mouse, Y1-IgG 5 μg/mouse) was “inhibited tumor growth”. Also, in data set [3], the “concentration to reach 0.8 OD units” value is 12.8 µg/mL. The “prevalence of cancer cells in the bone marrow” value in the data set with KG-1 cells (additional experiment, day 60, CONY1 scFv 75 μg/mouse three times/week, Mylotarg 7 μg/mouse once a week) was “had no effect”. Moreover, the “percentage of KG-1 cells in bone marrow” value in the data set with KG-1 cells (first experiment, KG-1 cells incubated in vitro with scFv before injection (groups 3 and 4)) was “significantly lower percentage”.
